Experimental data taken from patent US20250340604A1 (ENKEFALOS BIOSCIENCES, published 2025).

Each binder was assayed against T1, human HER3/ErbB3 (Hu ErbB3), recombinant extracellular domain (human, UniProt P21860 20-643) (assay: phage selection and phage ELISA on coated receptor ECD).
T1 construct: extracellular domain; Recombinant Fc fusion (R&D Systems) or His-tagged (Sino Biologicals)
GGVCRHSYSQIPLWCRRDSDCPGACICRGNGYCGSGSD (designed binder) [CYC15]: binds. GGVCWWDKWVFPISRQCRRDSDCPGACICRGNGYCGSGSD (designed binder) [CYC16]: binds.

Each binder was assayed against T2, human transferrin receptor (Hu TrfR), recombinant extracellular domain (human, UniProt P02786 89-760) in the same assay as above.
T2 construct: extracellular domain; Recombinant Fc fusion (R&D Systems) or His-tagged (Sino Biologicals); also called human TfR
T2 sequence (P02786 89-760): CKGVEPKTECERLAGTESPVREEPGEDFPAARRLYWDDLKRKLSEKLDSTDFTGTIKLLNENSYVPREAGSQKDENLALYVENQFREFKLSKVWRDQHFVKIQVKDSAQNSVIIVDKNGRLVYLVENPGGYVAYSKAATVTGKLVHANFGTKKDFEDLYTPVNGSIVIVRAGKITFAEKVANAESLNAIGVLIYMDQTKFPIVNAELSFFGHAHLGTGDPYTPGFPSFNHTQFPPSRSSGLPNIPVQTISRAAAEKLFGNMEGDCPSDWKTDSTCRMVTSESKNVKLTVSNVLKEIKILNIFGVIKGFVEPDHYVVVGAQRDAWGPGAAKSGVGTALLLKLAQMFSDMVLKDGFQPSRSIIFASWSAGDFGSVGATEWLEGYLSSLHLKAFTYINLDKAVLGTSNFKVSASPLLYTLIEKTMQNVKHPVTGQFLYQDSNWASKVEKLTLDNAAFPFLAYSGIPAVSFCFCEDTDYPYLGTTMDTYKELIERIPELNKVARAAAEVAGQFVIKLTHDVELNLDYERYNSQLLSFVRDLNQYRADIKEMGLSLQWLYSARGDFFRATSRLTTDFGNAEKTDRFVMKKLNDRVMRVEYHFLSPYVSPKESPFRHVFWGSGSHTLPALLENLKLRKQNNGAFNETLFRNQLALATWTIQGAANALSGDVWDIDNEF
GGVCRYQEWHMESWGSCRRDSDCPGACICRGNGYCGSGSD (designed binder) [CYC43]: binds. GGVCEYFRWHLDSWGECRRDSDCPGACICRGNGYCGSGSD (designed binder) [CYC40]: binds. GGVCLYEAWHLPSWGQCRRDSDCPGACICRGNGYCGSGSD (designed binder) [CYC44]: binds. GGVCQMVSEHWVARVWCRRDSDCPGACICRGNGYCGSGSD (designed binder) [CYC45]: binds. GGVCQEERWHMHSWGPCRRDSDCPGACICRGNGYCGSGSD (designed binder) [CYC42]: binds. GGVCLVSQWHIESWGQCRRDSDCPGACICRGNGYCGSGSD (designed binder) [CYC41]: binds. GGVCKALWYMGWGTCRRDSDCPGACICRGNGYCGSGSD (designed binder) [CYC24]: binds. GGVCKQNWLPGWGTCRRDSDCPGACICRGNGYCGSGSD (designed binder) [CYC25]: binds. GGVCDPRWLAGWGSCRRDSDCPETCICRGNGYCASGYD (designed binder) [CYC18]: binds.

What follows are binders tested against T3, human leptin receptor (Hu ObR), recombinant extracellular domain (human, UniProt P48357 22-839) in the same assay as above.
T3 construct: extracellular domain; Recombinant Fc fusion (R&D Systems) or His-tagged (Sino Biologicals)
T3 sequence (looked up): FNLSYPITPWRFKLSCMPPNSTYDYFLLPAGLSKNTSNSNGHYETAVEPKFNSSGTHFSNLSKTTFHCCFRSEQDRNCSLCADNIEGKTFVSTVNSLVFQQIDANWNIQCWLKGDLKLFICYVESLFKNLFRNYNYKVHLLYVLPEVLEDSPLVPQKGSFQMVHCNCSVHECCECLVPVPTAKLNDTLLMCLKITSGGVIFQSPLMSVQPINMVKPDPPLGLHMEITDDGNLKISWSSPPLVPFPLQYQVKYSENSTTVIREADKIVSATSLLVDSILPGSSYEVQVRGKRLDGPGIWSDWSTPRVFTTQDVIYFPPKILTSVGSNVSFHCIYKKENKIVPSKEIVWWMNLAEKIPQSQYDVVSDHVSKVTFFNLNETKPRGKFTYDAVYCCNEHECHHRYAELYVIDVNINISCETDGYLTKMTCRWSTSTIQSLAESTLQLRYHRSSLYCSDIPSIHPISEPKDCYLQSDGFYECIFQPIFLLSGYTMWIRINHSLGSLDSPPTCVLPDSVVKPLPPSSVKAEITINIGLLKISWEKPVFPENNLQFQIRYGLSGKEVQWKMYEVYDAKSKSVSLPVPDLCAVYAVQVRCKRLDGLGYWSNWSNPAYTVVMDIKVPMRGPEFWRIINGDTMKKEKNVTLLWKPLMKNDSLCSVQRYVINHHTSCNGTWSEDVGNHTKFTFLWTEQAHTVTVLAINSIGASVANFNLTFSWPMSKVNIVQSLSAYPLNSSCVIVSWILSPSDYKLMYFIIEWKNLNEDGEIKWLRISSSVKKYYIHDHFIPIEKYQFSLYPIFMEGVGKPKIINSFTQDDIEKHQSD
GGVCEWSDWFPYEFLFCRRDSDCPGACICRGNGYCGSGSD (designed binder) [CYC12]: binds. GGVCVQPWYSWFMEQGCRRDSDCPGACICRGNGYCGSGSD (designed binder) [CYC9]: binds. GGVCYDWGWFWPFEQYCRRDSDCPGACICRGNGYCGSGSD (designed binder) [CYC7]: binds. GGVCYVDWPWTLTLWYCRRDSDCPGACICRGNGYCGSGSD (designed binder) [CYC11]: binds. GGVCSDRWDWMFATWLCRRDSDCPGACICRGNGYCGSGSD (designed binder) [CYC8]: binds. GGVCWRWTPKIWVLEEMSSCSDCPGACICRGNGYCGSGSD (designed binder) [CYC4]: binds. GGVCPTQTWWFWLPAQCRRDSDCPGACICRGNGYCGSGSD (designed binder) [CYC10]: binds. GGVCPTAMWFDWFTVYCRRDSDCPGACICRGNGYCGSGSD (designed binder) [CYC13]: binds. GGVCHSQFWPWEWYQFCRRDSDCPGACICRGNGYCGSGSD (designed binder) [CYC3]: binds. GGVCFLWFWYGFSRTLCRRDSDCPGACICRGNGYCGSGSD (designed binder) [CYC14]: binds. GGVCGWFYWYHKWFGPCRRDSDCPGACICRGNGYCGSGSD (designed binder) [CYC6]: binds. GGVCWQGMMLFFVGEKCRRDSDCPGACICRGNGYCGSGSD (designed binder) [CYC5]: binds. GGVCQSFFWWHSWFGVCRRDSDCPGACICRGNGYCGSGSD (designed binder) [CYC2]: binds. GGVCPWPKWTYMAQKYCRRDSDCPGACICRGNGYCGSGSD (designed binder) [CYC1]: binds.

Each binder was assayed against T4, human receptor for advanced glycation-end products (Hu RAGE), recombinant extracellular domain (human, UniProt Q15109 23-342) in the same assay as above.
T4 construct: extracellular domain; Recombinant Fc fusion (R&D Systems) or His-tagged (Sino Biologicals)
T4 sequence (Q15109 23-342): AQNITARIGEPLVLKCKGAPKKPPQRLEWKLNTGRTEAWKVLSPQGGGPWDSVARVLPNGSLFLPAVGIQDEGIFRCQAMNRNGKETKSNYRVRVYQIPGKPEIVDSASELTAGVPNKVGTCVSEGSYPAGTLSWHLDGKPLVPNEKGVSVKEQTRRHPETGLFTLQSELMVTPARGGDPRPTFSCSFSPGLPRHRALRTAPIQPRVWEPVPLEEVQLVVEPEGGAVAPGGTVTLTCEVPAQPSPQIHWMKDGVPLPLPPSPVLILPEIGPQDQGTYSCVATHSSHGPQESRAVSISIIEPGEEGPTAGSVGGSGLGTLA
GGVCVSNFWFMHWFGVCRRDSDCPGACICRGNGYCGSGSD (designed binder) [CYC29]: binds. GGVCHVGYWWHIWMGACRRDSDCPGACICRGNGYCGSGSD (designed binder) [CYC28]: binds.

Each binder was assayed against T5, mouse transferrin receptor (Mu TrfR), recombinant extracellular domain (mouse, UniProt Q62351 89-763) in the same assay as above.
T5 construct: extracellular domain; Recombinant Fc fusion (R&D Systems) or His-tagged (Sino Biologicals)
T5 sequence (Q62351 89-763): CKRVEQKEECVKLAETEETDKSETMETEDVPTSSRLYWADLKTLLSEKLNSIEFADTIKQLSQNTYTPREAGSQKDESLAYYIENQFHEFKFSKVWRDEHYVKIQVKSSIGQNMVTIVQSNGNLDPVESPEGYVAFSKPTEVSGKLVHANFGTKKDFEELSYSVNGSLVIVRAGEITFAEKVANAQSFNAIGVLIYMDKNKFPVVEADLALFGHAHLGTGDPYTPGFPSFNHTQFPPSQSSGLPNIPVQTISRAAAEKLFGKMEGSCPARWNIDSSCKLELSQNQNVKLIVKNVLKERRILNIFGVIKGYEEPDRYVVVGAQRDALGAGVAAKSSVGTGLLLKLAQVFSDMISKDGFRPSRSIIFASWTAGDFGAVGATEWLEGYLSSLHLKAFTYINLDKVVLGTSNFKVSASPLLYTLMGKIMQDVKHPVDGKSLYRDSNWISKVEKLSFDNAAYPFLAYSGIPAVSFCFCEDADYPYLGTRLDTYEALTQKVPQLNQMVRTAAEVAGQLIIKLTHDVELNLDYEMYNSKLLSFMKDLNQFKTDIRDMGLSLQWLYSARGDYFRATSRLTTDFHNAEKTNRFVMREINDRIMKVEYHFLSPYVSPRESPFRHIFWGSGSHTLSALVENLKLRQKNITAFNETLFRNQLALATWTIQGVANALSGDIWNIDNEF
GGVCAYVHDWYHHVMYCRRDSDCPGACICRGNGYCGSGSD (designed binder) [CYC20]: binds. GGVCMHNSASHNIQMQCRRDSDCPGACICRGNGYCGSGSD (designed binder) [CYC21]: binds. GGVCQTVFPMWPWYQLCRRDSDCPGACICRGNGYCGSGSD (designed binder) [CYC22]: binds. GGVCTVWPFVWWGGVPCRRDSDCPGACICRGNGYCGSGSD (designed binder) [CYC19]: binds. GGVCHNLFVIESILFWCRRDSDCPGACICRGNGYCGSGSD (designed binder) [CYC23]: binds.
